Measurements: paper PMC10057379
Where no end group is shown, it is not given here.

Key:
NRP-1 (Homo sapiens) = NRP-1 (Homo sapiens) (UniProt O14786); experiment: SPR; conditions: cited from earlier work
[1] = biological target: Neuropilin-1 (NRP-1) (human (endogenous in THP-1)) (UniProt O14786)

Molecule	Kd (NRP-1 (Homo sapiens)) [µM]	uptake of AGuIX@PS@KDKPPR nanoparticles (1 µM, 4 h or 24 h, 37 °C) by M0, M1 and M2 macrophages, porphyrin fluorescence of the cell lysate; control: AGuIX@PS@scramble, 24 h (fold (M0 and M2 against M1, 24 h)) [1]
KDKPPR peptide	4.7	–
KDKPPR (also: grafted onto AGuIX nanoparticles with porphyrin and gadolinium) [KDKPPR ligand peptide on AGuIX@PS@KDKPPR nanoparticles]	–	3
